This passage reports Kd, koff and kon results from patent US20260242472A1 (SANYOU BIOPHARMACEUTICALS, published 2026).

Test [1] has as its target T1, H2C-scFv-LH (human).
T1 construct: also called control antibody H2C-scFv-LH; parent antibody
The experiment in a line: SPR (Biacore T200), antigen amine-coupled to about 75 RU, antibody 4 and 20 nM, 1:1 Langmuir fit. The procedure:
Protein coupling: The huCD3E-AA1-27-huFc protein produced in example 1.2 was diluted to 5.8 μg/mL with an NaAc buffer at pH 4.5. The flow rate was set to 10 μL/min. The chip was activated with a mixture of 1-ethyl-(3-dimethylaminopropyl)carbodiimide (EDC) and N-hydroxysuccinimide (NHS) for the default time of 420 s. The antigen protein huCD3E AA1-27-huFc was immobilized to a level of approximately 75 RU using a coupling mode with a preset coupling amount. The activated groups not bound to the test sample were blocked with ethanolamine.
Sample test condition: A PBS buffer (pH 7.4) containing 0.05% Tween-20 was used as a running buffer, and the running buffer was used as a control antibody test sample. A series of antibody concentrations (4 nM, 20 nM) were set. During sample analysis, the flow rate was set to 30 μL/min, the binding time was 180 s, and the dissociation time was 300 s. After dissociation was completed, regeneration was performed with 10 mM Gly-HCl (pH 2.0) for 20 s to completely remove antibody bound to the antigen.
Parameter fitting: The experiment was run in multiple cycles, with the response signal plotted against analysis time on the abscissa and response value on the ordinate. After dual-reference subtraction, the obtained data were fitted by BIAcore T200 analysis software. The fitting model used was a 1:1 Langmuir binding model, so as to determine affinity indicators such as the binding dissociation constant.
(SPR reads the build-up and loss of mass on a sensor chip optically.)

Test [2] concerns the target T1, H2C-scFv-LH. The experiment in a line: BLI (Gator), biotinylated antigen on SA probe, antibody 0.62-40 nM. How it is done: (§1) Protein biotinylation: The antigen protein huCD3E AA1-27-huFc was diluted to a final concentration of 1 mg/mL, premixed with biotin and reacted at 4° C. for 1 h, and then unreacted free biotin was removed by filtration with an ultrafiltration tube to obtain biotinylated huCD3E AA1-27-huFc (hereinafter referred to as huCD3E-AA1-27-huFc-Biotin).
(§2) In the dark, the sensor was pre-wetted with Q Buffer (SA Probes, ProbeLife). After 10 min, the sample plate (Greiner, 655209) was tested. After the test was correct, the preset procedure was followed. First, antigen binding was performed for 600 s. After the binding was completed and equilibration was continued in Q Buffer for 30 s, the sensor bound to the antigen huCD3E-AA1-27-huFc-Biotin was transferred to different concentrations of antibody dilutions for binding for 120 s, and then transferred to Q Buffer for dissociation for 180 s. Finally, KD, Ka and Kd were obtained by fitting the binding and dissociation data of different concentrations of antigens and antibodies.

The target of a further test is T2, 63-scFv-LH (human).
T2 construct: scFv-Fc
The test is described as above. How it is done:
as §1, §2

The target in a further test is T3, 79-scFv-LH (human).
T3 construct: scFv-Fc
The description is as above. How it is done: as §1, §2

B1: huCD3E-AA1-27-huFc (Fc fusion)
chain: QDGNEEMGGITQTPYKVSISGTTVILTTHTCPPCPAPELLGGPSVFLFPPKPKDTLMISRTPEVTCVVVDVSHEDPQVKFNWYVDGVQVHNAKTKPREQQYNSTYRVVSVLTVLHQNWLDGKEYKCKVSNKALPAPIEKTISKAKGQPREPQVYTLPPSREEMTKNQVSLTCLVKGFYPSDIAVEWESNGQPENNYKTTPPVLDSDGSFFLYSKLTVDKSRWQQGNVFSCSVMHEALHNHYTQKSLSLSPGK
notes: Made in HEK293 cells, purified on Protein A/G. No linker between the two parts is mentioned; also called antigen protein
The term Kd denotes the equilibrium constant for the complex coming apart. In general, koff refers to the rate constant with which the complex falls apart. Read a low koff as slow dissociation. The term kon denotes the second-order rate constant of association. Low readings indicate slow association, high ones fast association. As to B1, in the test with H2C-scFv-LH [1], binding was characterised by a dissociation constant (Kd) of 59.6 pM, the koff was 0.000165 s⁻¹ and the kon was found to be 2.77e+06 M⁻¹ s⁻¹.

B2: huCD3E-AA1-27-huFc-Biotin (Fc fusion)
chain: QDGNEEMGGITQTPYKVSISGTTVILTTHTCPPCPAPELLGGPSVFLFPPKPKDTLMISRTPEVTCVVVDVSHEDPQVKFNWYVDGVQVHNAKTKPREQQYNSTYRVVSVLTVLHQNWLDGKEYKCKVSNKALPAPIEKTISKAKGQPREPQVYTLPPSREEMTKNQVSLTCLVKGFYPSDIAVEWESNGQPENNYKTTPPVLDSDGSFFLYSKLTVDKSRWQQGNVFSCSVMHEALHNHYTQKSLSLSPGK
modifications: biotinylated (sites not given)
notes: also called biotinylated huCD3E AA1-27-huFc
Turning to B2, the results for the Kd with H2C-scFv-LH [2], in the test with 63-scFv-LH and with 79-scFv-LH were 318 pM, 358 pM and 222 pM, respectively. In addition, the koff stood at 0.000327 s⁻¹ with H2C-scFv-LH [2], 0.000428 s⁻¹ with 63-scFv-LH and 0.000184 s⁻¹ with 79-scFv-LH. In addition, the kon was 1.03e+06 M⁻¹ s⁻¹ with H2C-scFv-LH [2], 1.19e+06 M⁻¹ s⁻¹ with 63-scFv-LH and 826000 M⁻¹ s⁻¹ with 79-scFv-LH.
